Source: IntAct's records for PubMed 40475291

B1: Patched domain-containing protein 1 (Mus musculus), Q14B62 (parent)
chain: MLRQVLHRGLRTCFSRLGHFIASHPVFFASAPVLISILLGASFSRYQVEESVEHLLAPQHSLAKIERNLVNSLFPVNRSKHRLYSDLQTPGRYGRVIVTSYQKANMLDQHHTDLILKLHTAVTKIQVPRPGFNYTFAHICVLNNDKTCIVDDIVHVLEELKNARATNRTNFAITYPITHLKDGRAVYNGHQLGGVTVHSKDRVKSAEAIQLTYYLQSINSLNDMVAERWESSFCDTVKLFQKSNSKVKIYPYTSSSLREDFQKTSRVSERYLVTSLILVVTMAILCCSMQDCVRSKPWLGLLGLVTISLATLTAAGIINLTGGKYNSTFLGVPFVMLGHGLYGTFEMLSSWRKTREDQHVKERTAEVYADSMLSFSLTTAMYLVTFGIGASPFTNIEAARIFCCNSCIAILFNYLYVLSFYGSSLVFTGYIENNYQHSIFCRKVPKPDVLQEKPAWYRFLLTARFSEETAEGEEANTYESHLLVCFLKRYYCDWITNTYVKPFVVLFYLIYISFALMGYLQVSEGSDLSNIVATATQTIEYTTAHQKYFNNYSPVIGFYIYESIEYWNSSVQEDVLEYTKGFVRISWFESYLNYLRKLNVSTDLPKKNFTDMLRNSFLKTPQFSHFQEDIIFSKKYNDEVDVVASRMFLVAKTMETNREELYDLLETLRRLSVTSKVKFIVFNPSFVYMDRYASSLGAPLHNSCISALFLLFFSAFLVADSLINVWITLTVVSVEFGVIGFMTLWKVELDCISVLCLIYGINYTIDNCAPLLSTFVLGKDFTRTKWVKNALEVHGVAILQSYLCYIVGLFPLAAVPSNLTCTLFRCLFLIAFVTFFHCFAILPVILTFLPPSKKKRKEKKNPENREEIECVEMVDIDSTRVVDQITTV
partner: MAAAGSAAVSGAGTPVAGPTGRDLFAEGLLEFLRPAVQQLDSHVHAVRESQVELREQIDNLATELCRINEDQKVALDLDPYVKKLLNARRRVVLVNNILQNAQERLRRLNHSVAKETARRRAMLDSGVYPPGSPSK

Variants of: B1
Settings: with snapn_mouse Snapin

Variant | effect of a mutation on the interaction
K181T | decreasing interaction strength
F549C | increasing interaction strength
T602A | increasing interaction strength
Q102R | with no effect
D527E | increasing interaction strength
V195I | decreasing interaction strength
S51N | with no effect
L73F | with no effect
Y213C | decreasing interaction strength
V150M | with no effect
P75L | decreasing interaction strength
P75Q | decreasing interaction strength
